Measurements taken from patent US20250243262A1.

Legend:
[1] = target: rPcrV protein (recombinant Pseudomonas PcrV) (Pseudomonas aeruginosa); assay: SPR (Bio-Rad ProteOn XPR36); antibody captured, rPcrV as analyte; table under the sensorgram
[2] = target: rPcrV protein (recombinant Pseudomonas PcrV) (Pseudomonas aeruginosa); assay: SPR (Bio-Rad ProteOn XPR36); antibody captured on GLC sensor chip with anti-human IgG, rPcrV injected at multiple concentrations
[3] = target: rPcrV protein (recombinant Pseudomonas PcrV) (Pseudomonas aeruginosa); assay: SPR (Bio-Rad ProteOn XPR36); antibody captured by anti-human IgG on GLC chip, rPcrV injected

Kd [1]: 0.046 nM
koff [1]: 4.03e-05 s⁻¹
kon [1]: 884000 M⁻¹ s⁻¹
Kd [2]: 0.0456 nM
koff [2]: 4.03e-05 s⁻¹
kon [2]: 884000 M⁻¹ s⁻¹
fold increase in Kd over V2L2-GL [3]: 2 to 3 fold
Substance: V2L2-MD (germlined lead optimized V2L2) (antibody)
